From the supplement of paper PMC10899765

The sequences below were run on MCF10A (assay: 5+ nucleoli phenotype percent effect (relative to siNT 0% and siKIF11 100%); higher = more cells with five or more nucleoli). Settings: 20 nM; 72 h.
Protocol: (§1)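 After 72 h, cells were fixed and stained with Hoechst and anti-fibrillarin, and nucleoli per nucleus were counted with CellProfiler. Values are plate-adjusted percent effect for the one-nucleolus and 5+ nucleoli phenotypes, normalised to siNT (0%) and to the positive controls siNOL11 or siKIF11 (100%), as the mean of biological triplicates. Percent viability is the nuclei count relative to siNT.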

| Sequence | 5+ nucleoli phenotype percent effect [%] |
| --- | --- |
| UGGGAACGGGUUCCGGCAGACGCUG [hsa-miR-1292-5p] | -16.7 |
| GUUCUGUUAACCCAUCCCCUCA [hsa-miR-4652-3p] | -42.7 |
| AGACCCUGGUCUGCACUCUAUC [hsa-miR-504] | 3.4 |
| AUUGUUCUGUCUUUCUCCCAG [hsa-miR-6739-3p] | -25.7 |
| AAAGUCUCGCUCUCUGCCCCUCA [hsa-miR-3184-3p] | 41.1 |
| UGGGUGGAAGAAGGUCUGGUU [hsa-miR-6745] | -9.03 |
| GAGCCCCUCUCUGCUCUCCAG [hsa-miR-6769a-3p] | 9.99 |
| CAUCUGGGCAACUGACUGAAC [hsa-miR-1298-3p] | -17.1 |
| UCCUACGCUGCUCUCUCACUCC [hsa-miR-6761-3p] | 14.2 |
| CGGCGCGACCGGCCCGGGG [hsa-miR-4634] | 24.7 |
| UCCCCCAGGUGUGAUUCUGAUUU [hsa-miR-361-3p] | 21.5 |
| GUAGGGGCGUCCCGGGCGCGCGGG [hsa-miR-6789-5p] | 28.1 |
| UAGCAGCGGGAACAGUUCUGCAG [hsa-miR-503-5p] | -16.1 |
| UCGGCCUGGGGAGGAGGAAGGG [hsa-miR-7107-5p] | 26.1 |
| CCUCCUGCCCUCCUUGCUGU [hsa-miR-1976] | 21.5 |
| CACUGCAGGACUCAGCAG [hsa-miR-4418] | -22.7 |
| GUGAACGGGCGCCAUCCCGAGG [hsa-miR-887] | -3.19 |
| CCAGUCCUGUGCCUGCCGCCU [hsa-miR-1910] | 6.81 |
| AGGUUGCCUGUGAGGUGUUCA [hsa-miR-656-5p] | -1.12 |
| AGGCAUUGACUUCUCACUAGCU [hsa-miR-1256] | 2.63 |
| UACUGCAUCAGGAACUGAUUGGA [hsa-miR-217] | 1.56 |
| UGGGAAAGAGAAAGAACAAGUA [hsa-miR-6739-5p] | 33 |
| CUUUUUGCGGUCUGGGCUUGC [hsa-miR-129-5p] | -6.61 |
| UGGAUGUGGAAGGAGUUAUCU [hsa-miR-4764-5p] | -8.02 |
| UGACAGCGCCCUGCCUGGCUC [hsa-miR-2277-3p] | -19.4 |
| CAGGGAAAUGGGAAGAACUAGA [hsa-miR-5584-5p] | 34.8 |
| ACUCGGCUGCGGUGGACAAGU [hsa-miR-4638-5p] | -4.89 |
| CCAGGAGAUCCAGAGAGAAU [hsa-miR-4768-3p] | 1.69 |
| GGUCGUAUGUGUGACGCCAUUU [hsa-miR-489-5p] | -3.91 |
| CAGUUCAGAAGUGUUCCUGAGU [hsa-miR-5000-5p] | -19.1 |

The sequences below were run on MCF10A (assay: one-nucleolus phenotype percent effect (relative to siNT 0% and siNOL11 100%); higher = more cells with one nucleolus (ribosome biogenesis inhibition)). Settings: 20 nM; 72 h.
Protocol: as §1

| Sequence | one-nucleolus phenotype percent effect [%] |
| --- | --- |
| AAGGGGGAAGGAAACAUGGAGA [hsa-miR-4716-3p] | 21.6 |
| UGGCGAUUUUGGAACUCAAUGGCA [hsa-miR-8053] | 4.42 |
| ACCCGCCCGUCUCCCCACAG [hsa-miR-7108-3p] | -20.7 |
| GGUGGGAUGGAGAGAAGGUAUGAG [hsa-miR-4769-5p] | -13.3 |
| AGCCAAGUGGAAGUUACUUUA [hsa-miR-4480] | 33.8 |
| AUCUGGAGGUAAGAAGCACUUU [hsa-miR-516b-5p] | -1.83 |
| CACUGUGUCCUUUCUGCGUAG [hsa-miR-892a] | 31.9 |
| AGGAAUGUUCCUUCUUUGCC [hsa-miR-613] | 36.5 |
| AGCUGAGCUCCAUGGACGUGCAGU [hsa-miR-4663] | -21.4 |
| UGUGCAAAUCCAUGCAAAACUGA [hsa-miR-19b-3p] | 4.13 |
| CUUAGACUGCCAGACUCCCUGA [hsa-miR-7702] | -29.9 |
| UAAAUUUCACCUUUCUGAGAAGG [hsa-miR-513a-3p] | 18 |
| UUGUCUCUUGUUCCUCACACAG [hsa-miR-6818-3p] | -11.1 |
| AUUCCUAGAAAUUGUUCAUA [hsa-miR-384] | -8.73 |
| UGGGUCUUUGCGGGCGAGAUGA [hsa-miR-193a-5p] | 26.5 |
| GACUGACACCUCUUUGGGUGAA [hsa-miR-888-3p] | -18.1 |
| UCGGGGCAUGGGGGAGGGAGGCUGG [hsa-miR-6775-5p] | -21.8 |
| ACUGCCCCAGGUGCUGCUGG [hsa-miR-324-3p] | -7.87 |
| UCGAGGAGCUCACAGUCU [hsa-miR-151b] | 11.9 |
| UCUGCUCAUACCCCAUGGUUUCU [hsa-miR-767-3p] | -21.6 |

| Sequence | one-nucleolus phenotype percent effect [%] |
| --- | --- |
| UGCCCCAUCUGUGCCCUGGGUAGGA [hsa-miR-3189-5p] | 1.04 |
| CUGCAGAGUUUGUACGGACCGG [hsa-miR-3678-3p] | 10.8 |
| UCAGGCAAAGGGAUAUUUACAGA [hsa-miR-4742-5p] | -11.1 |
| GUCCAGUUUUCCCAGGAAUCCCU [hsa-miR-145-5p] | -4.84 |
| UAUUGCACUUGUCCCGGCCUGU [hsa-miR-92a-3p] | -3.22 |
| CCACUUGGAUCUGAAGGCUGCCC [hsa-miR-3614-5p] | 36.9 |
| UGCUUAAGUUGUACCAAGUAU [hsa-miR-4720-3p] | 7.73 |
| AAUAGCUCAGAAUGUCAGUUCUG [hsa-miR-7705] | 2.1 |
| CCUGGUGGCUUCCUUUU [hsa-miR-4456] | 6.37 |
| UGGGAACGGGUUCCGGCAGACGCUG [hsa-miR-1292-5p] | 13.5 |
| GUUCUGUUAACCCAUCCCCUCA [hsa-miR-4652-3p] | 16 |
| AGACCCUGGUCUGCACUCUAUC [hsa-miR-504] | -10.9 |
| AUUGUUCUGUCUUUCUCCCAG [hsa-miR-6739-3p] | 7.82 |
| AAAGUCUCGCUCUCUGCCCCUCA [hsa-miR-3184-3p] | -19.6 |
| UGGGUGGAAGAAGGUCUGGUU [hsa-miR-6745] | 17.1 |
| GAGCCCCUCUCUGCUCUCCAG [hsa-miR-6769a-3p] | -15.3 |
| CAUCUGGGCAACUGACUGAAC [hsa-miR-1298-3p] | 57 |
| UCCUACGCUGCUCUCUCACUCC [hsa-miR-6761-3p] | -18.4 |
| CGGCGCGACCGGCCCGGGG [hsa-miR-4634] | -14.3 |
| UCCCCCAGGUGUGAUUCUGAUUU [hsa-miR-361-3p] | -5.19 |

| Sequence | one-nucleolus phenotype percent effect [%] |
| --- | --- |
| GUAGGGGCGUCCCGGGCGCGCGGG [hsa-miR-6789-5p] | -25.6 |
| UAGCAGCGGGAACAGUUCUGCAG [hsa-miR-503-5p] | 14.4 |
| UCGGCCUGGGGAGGAGGAAGGG [hsa-miR-7107-5p] | -28.2 |
| CCUCCUGCCCUCCUUGCUGU [hsa-miR-1976] | 7.39 |
| CACUGCAGGACUCAGCAG [hsa-miR-4418] | -4.26 |
| GUGAACGGGCGCCAUCCCGAGG [hsa-miR-887] | -1.47 |
| CCAGUCCUGUGCCUGCCGCCU [hsa-miR-1910] | 3.9 |
| AGGUUGCCUGUGAGGUGUUCA [hsa-miR-656-5p] | 10.7 |
| AGGCAUUGACUUCUCACUAGCU [hsa-miR-1256] | 1.57 |
| UACUGCAUCAGGAACUGAUUGGA [hsa-miR-217] | 0.807 |
| UGGGAAAGAGAAAGAACAAGUA [hsa-miR-6739-5p] | -11.2 |
| CUUUUUGCGGUCUGGGCUUGC [hsa-miR-129-5p] | 8.91 |
| UGGAUGUGGAAGGAGUUAUCU [hsa-miR-4764-5p] | -0.862 |
| UGACAGCGCCCUGCCUGGCUC [hsa-miR-2277-3p] | 2.24 |
| CAGGGAAAUGGGAAGAACUAGA [hsa-miR-5584-5p] | -19.1 |
| ACUCGGCUGCGGUGGACAAGU [hsa-miR-4638-5p] | 3.97 |
| CCAGGAGAUCCAGAGAGAAU [hsa-miR-4768-3p] | 0.373 |
| GGUCGUAUGUGUGACGCCAUUU [hsa-miR-489-5p] | -3.74 |
| CAGUUCAGAAGUGUUCCUGAGU [hsa-miR-5000-5p] | -9.77 |
